What was measured:
UHRF1 deltaSRA = target: T1, UHRF1 deltaSRA (human, UniProt Q96T88 1-793, del414-617); test: FP; not detectable; ITC: 10 mM HEPES pH 8.0, 100 mM NaCl, 18 C; EMSA: 20 mM HEPES pH 7.5, 100 mM NaCl, 8% glycerol, 1 mM DTT, on ice; pull-down: 20 mM HEPES-NaOH pH 8.0, 100 mM NaC
T1 sequence: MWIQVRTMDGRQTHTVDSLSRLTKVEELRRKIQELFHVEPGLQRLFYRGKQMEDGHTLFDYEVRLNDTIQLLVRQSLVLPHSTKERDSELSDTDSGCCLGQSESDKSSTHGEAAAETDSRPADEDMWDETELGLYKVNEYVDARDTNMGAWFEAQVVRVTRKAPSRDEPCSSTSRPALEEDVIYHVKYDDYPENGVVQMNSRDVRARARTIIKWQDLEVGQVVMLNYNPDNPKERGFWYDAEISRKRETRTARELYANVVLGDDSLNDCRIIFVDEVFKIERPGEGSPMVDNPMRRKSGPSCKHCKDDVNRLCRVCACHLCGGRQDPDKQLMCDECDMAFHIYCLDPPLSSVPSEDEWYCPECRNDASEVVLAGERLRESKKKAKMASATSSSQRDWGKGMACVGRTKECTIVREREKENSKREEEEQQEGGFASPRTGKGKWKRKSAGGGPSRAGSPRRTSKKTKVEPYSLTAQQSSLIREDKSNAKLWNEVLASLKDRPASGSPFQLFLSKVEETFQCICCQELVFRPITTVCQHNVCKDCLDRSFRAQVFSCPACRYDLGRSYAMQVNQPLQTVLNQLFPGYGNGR

SRA-Spacer [1] = target: T2, SRA-Spacer (human, UniProt Q96T88 414-674); test: FP; DNA length series; ITC: 10 mM HEPES pH 8.0, 100 mM NaCl, 18 C; EMSA: 20 mM HEPES pH 7.5, 100 mM NaCl, 8% glycerol, 1 mM DTT, on ice; pull-down: 20 mM HEPES-NaOH pH 8.0, 100 mM NaC
T2 sequence: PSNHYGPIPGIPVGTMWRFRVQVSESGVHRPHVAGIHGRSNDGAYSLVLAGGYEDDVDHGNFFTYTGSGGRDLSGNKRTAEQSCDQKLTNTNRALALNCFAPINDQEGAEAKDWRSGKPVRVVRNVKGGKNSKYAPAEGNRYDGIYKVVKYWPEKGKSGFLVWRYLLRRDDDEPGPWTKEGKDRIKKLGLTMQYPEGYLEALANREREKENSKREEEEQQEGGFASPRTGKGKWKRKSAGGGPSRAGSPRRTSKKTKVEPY

SRA = target: T3, SRA (human, UniProt Q96T88 414-617); test: FP; 50 mM NaCl; ITC: 10 mM HEPES pH 8.0, 100 mM NaCl, 18 C; EMSA: 20 mM HEPES pH 7.5, 100 mM NaCl, 8% glycerol, 1 mM DTT, on ice; pull-down: 20 mM HEPES-NaOH pH 8.0, 100 mM NaC
T3 sequence: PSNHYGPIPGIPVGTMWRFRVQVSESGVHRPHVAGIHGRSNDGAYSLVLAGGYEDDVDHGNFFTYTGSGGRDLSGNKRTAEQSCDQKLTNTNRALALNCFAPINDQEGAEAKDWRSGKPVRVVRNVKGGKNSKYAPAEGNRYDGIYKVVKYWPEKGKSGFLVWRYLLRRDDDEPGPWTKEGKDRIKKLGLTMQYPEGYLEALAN

SRA-Spacer [2] = target: T2, SRA-Spacer; test: as above
SRA-Spacer-642 = target: T4, SRA-Spacer-642 (human, UniProt Q96T88 414-642); test: FP; ITC: 10 mM HEPES pH 8.0, 100 mM NaCl, 18 C; EMSA: 20 mM HEPES pH 7.5, 100 mM NaCl, 8% glycerol, 1 mM DTT, on ice; pull-down: 20 mM HEPES-NaOH pH 8.0, 100 mM NaC
T4 sequence: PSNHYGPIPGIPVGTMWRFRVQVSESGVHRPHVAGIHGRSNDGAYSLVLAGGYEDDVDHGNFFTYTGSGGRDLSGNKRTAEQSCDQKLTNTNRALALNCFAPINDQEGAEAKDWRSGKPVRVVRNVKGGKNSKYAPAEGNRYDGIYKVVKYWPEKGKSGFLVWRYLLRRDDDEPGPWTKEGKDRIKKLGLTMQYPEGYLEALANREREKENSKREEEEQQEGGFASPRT

SRA-Spacer [3] = target: T2, SRA-Spacer; test: as above
SRA-Spacer [4] = target: T2, SRA-Spacer; test: FP; 150 mM NaCl; ITC: 10 mM HEPES pH 8.0, 100 mM NaCl, 18 C; EMSA: 20 mM HEPES pH 7.5, 100 mM NaCl, 8% glycerol, 1 mM DTT, on ice; pull-down: 20 mM HEPES-NaOH pH 8.0, 100 mM NaC

B1: FAM-12bp-HM-DNA (dsDNA)
DNA 1: CCATGCGCTGAC
DNA 2: GTCAGCGCATGG
modifications: 5-methyl-dC at position 6 of strand 2 (GTCAGXGCATGG)
binding result (UHRF1 deltaSRA): no binding
Kd (SRA-Spacer [1]): 0.34 ± 0.09 µM
Kd (SRA): 0.15 ± 0.018 µM
Kd (SRA-Spacer [2]): 0.024 ± 0.0037 µM
Kd (SRA-Spacer-642): 6.11 ± 1.15 µM
Kd (SRA-Spacer [3]): 0.49 ± 0.08 µM
Kd (SRA-Spacer [4]): 0.58 ± 0.098 µM
